Source: publication PMC11239505

Target: Gαi (in HEK cells only expressing Gαs and Gαi, GloSensor assay)

Row | Substance | GloSensor assay: decrease of the forskolin-stimulated cAMP bioluminescence signal after a 2-s 365-nm light pulse, HEK cells only expressing Gαs and Gαi
1 | parapinopsin from the Japanese lamprey Lethenteron camtschaticum (LcPPO) (receptor) | 63%
2 | trafficking-enhanced eOPN3 derived from Anopheles stephensi (AsOPN3) (receptor) | 62%
